In patent US20220251162A1:
Where no end group is shown, it is not given here.

Target: human PAC1 receptor (human), P41586
Test: cell-based or functional assay

Chain of human PAC1 receptor (human), P41586 (P41586 21-468): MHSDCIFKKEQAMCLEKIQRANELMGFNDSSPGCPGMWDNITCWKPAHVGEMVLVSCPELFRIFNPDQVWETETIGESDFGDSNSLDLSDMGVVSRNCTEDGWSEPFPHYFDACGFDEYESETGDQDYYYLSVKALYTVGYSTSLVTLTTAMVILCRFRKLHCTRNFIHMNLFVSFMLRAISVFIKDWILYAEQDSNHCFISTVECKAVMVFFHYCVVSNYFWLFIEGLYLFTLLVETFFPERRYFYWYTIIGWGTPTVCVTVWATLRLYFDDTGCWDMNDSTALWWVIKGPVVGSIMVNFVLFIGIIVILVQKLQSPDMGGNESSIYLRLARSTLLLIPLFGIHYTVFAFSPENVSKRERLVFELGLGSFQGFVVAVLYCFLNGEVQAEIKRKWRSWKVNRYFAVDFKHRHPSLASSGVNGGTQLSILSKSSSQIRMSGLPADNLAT

Row | Binder | cAMP (fmol) at 10 nM [fmol] | cAMP (fmol) at 100 nM [fmol] | cAMP (fmol) at 1 µM [fmol] | cAMP (fmol) at 10 µM [fmol] | cAMP (fmol) at 1 nM [fmol]
1 | HSDGIFAPGNSVFKECMKQKKKEFKAGK (ends and bridges not checked) [MAXCAP 4] | 4060 | 6400 | 6400 | 5780 | –
2 | HSDGIFTDSYSSRYRKQMAVKKYLAAVLPGNSVFKECMKQKKKEFKAGK (ends and bridges not checked) [MAXCAP 1] | 6220 | 4710 | – | – | 3170
